Results: patent US10632208B2, “Peptide-mediated drug delivery across epithelial barrier” (Purdue Research Foundation, priority 2017, dated 2020)

How the values were obtained:
NF-κB(p65) [1] = assay: Confocal immunofluorescence of p65 localization in Caco-2 cells; type: cell-based, human; conditions: 30 min
Protocol: For antibody labeling in cells, Caco-2 cells, were grown to 40-50% confluence in four-chambered slides (Millipore). At the end of the treatment, the cells were fixed with 3.7% formaldehyde in PBS for 20 min and permeabilized and blocked with PBS containing 0.3% Triton X-100 and 3% BSA (Sigma-Aldrich) for 1 h at room temperature and then incubated with respective antibodies overnight at 4° C. Following antibody incubation, the cells were washed with PBS (3 cycles, 5 min) and incubated with FITC or Alexa Fluor 555-conjugated secondary antibody for 2 h at room temperature. The nuclei were stained with DAPI (500 ng/ml; Cell signaling) and slides were mounted in ProLong antifade reagent (Cell Signaling).
All images were acquired using a Nikon A1R MP Multiphoton (Nikon) Confocal fluorescence microscope using a 60× oil immersion objective equipped with the Nikon Elements software (Nikon) at the Purdue Bioscience Imaging Facility. The X-Z and Y-Z cross-sections were produced by orthogonal reconstructions from z-stack scanning at 0.15 μm intervals taken with 60× objective in 5 μm thick paraffin embedded tissue section. Three-dimensional reconstructions were performed using Nikon elements software (Nikon).

NF-κB(p65) [2] = assay: Immunoblot of NF-κB activation in Caco-2 cytoplasmic and nuclear extracts; type: cell-based, human; conditions: LAP 1000 ng/mL or TNF-α 10 ng/mL
Protocol: To extract the proteins from Caco-2 cells, cells were seeded in 6-well plates for 14-21 days. Following treatment, the cells were washed, scraped from the bottom of 6-well plates, suspended in PBS, and pelleted by centrifugation. Total protein from Caco-2 cells was extracted using the M-PER Extraction Kit (Thermo Fisher Scientific). Detergent-insoluble (membrane) and detergent-soluble (cytosolic) proteins were isolated using a Mem-Per Eukaryotic Protein Extraction Kit (Thermo Fisher Scientific) while the cytosolic and nuclear proteins were extracted using NE-PER Extraction Reagent (Thermo Fisher Scientific). To extract proteins from ileal epithelial cells, the epithelial cell fraction from ileal tissues were isolated as described above and the detergent-insoluble and the detergent-soluble proteins were isolated using a Mem-Per Eukaryotic Protein Extraction Kit.
To extract total protein from intact bacterial cells, sample solvent buffer and sonication (3 cycles of […]) were used. To isolate the cell wall-associated proteins bacterial pellets were resuspended in 0.5 ml protein extraction buffer (0.5% SDS, 10 mM Tris at pH 6.9), and incubated at 37° C. for 30 min with agitation. The samples were centrifuged (14,000×g, 10 min, 4° C.), and the supernatants (containing cell wall-associated proteins) were retained. Halt proteases and phosphatase inhibitors (Thermo Fisher Scientific) were used during all of the protein extraction procedures. The protein concentrations were determined by BCA assay (Thermo Fisher Scientific), and separated on SDS-PAGE gels (10-12.5% polyacrylamide) and electro-transferred to polyvinylidene difluoride (PVDF) membrane (Millipore). The membranes were then blocked in 5% nonfat dry milk (NFDM) in 0.1 M Tris-buffered saline, pH 7.5 (TBS) containing 0.1% Tween 20 (TBST) for at least 1 h. All of the primary antibodies were diluted in 5% bovine serum albumin (BSA) or 5% NFDM in TBST and incubated overnight. Secondary antibodies (1:2000 in 5% NFDM in TBST) incubated for 1 h at 37° C., and a chemiluminescence method was performed using LumiGLO reagent (Cell Signaling). The membranes were exposed to X-ray films or visualized using the Chemi-Doc XRS system (Bio-Rad). To immunoprobe the same membrane with another antibody, the originally bound antibodies from the membranes were removed by incubating the membranes in Restore Western Blot Stripping Buffer (Thermo Fisher Scientific) according to the manufacturer's protocol. To compare the reaction intensities, the average band densities were determined using Quantity One software (Bio-Rad). Densitometry reports represent the mean±SEM after normalization to the loading control and is presented as % change of protein with the average for untreated cells (control) set at 100%. Immunoblots and densitometric reports are representative of 2-3 independent experiments.

NF-κB = NF-κB luciferase reporter assay in RAW 264.7 cells; type: cell-based, murine; conditions: for NF-κB activation by LAP domains (luciferase activity): 1 μg/mL each, 6 h; for NF-κB activation: purified proteins, LPS positive control
Protocol: The NF-κB Luciferase reporter RAW 264.7 cell line (Novus Biologicals), which expresses an optimized Renilla luciferase reporter gene (RenSP) under the transcriptional control of an NF-κB response element, was used. The cells were seeded (1×10^5 cells/well) into 96-well luminometer-compatible plates for 16 h and then treated with analytes for 6 h. Media from each well were aspirated, and then 100 μL of ice-cold PBS was added to each well. The plates were then frozen solid at −80° C. overnight to completely lyse the cells, thawed back to room temperature, and luciferase assays were performed using the LightSwitch Luciferase assay kit (Novus Biologicals). Luminescence was measured as the relative luminescence units (RLU) using Spectramax (Spectramax, Molecular Devices) and reported as the relative fold change compared with that of the control cells that were treated with media alone. Recombinant human or mouse TNF-α (R&D Systems) and polymyxin B, LPS (E. coli Serotype R515, Re, TLR grade), and proteinase K (each from Sigma-Aldrich) were used.

Molecule: TNF-α [reference compound]
- localization of p65 (NF-κB(p65) [1]; Caco-2 cells, LAP 1 μg/mL or TNF-α 10 ng/mL): in the nucleus
- localization of p65 (NF-κB(p65) [1]; Hsp60 knocked-down Caco-2 cells): slight reduction in the nuclear translocation of p65
- time of appearance of cytoplasmic phospho-IκBα (Ser32) (NF-κB(p65) [2]): 15 min
- time of increase in nuclear p65 and P-p65 (NF-κB(p65) [2]): 30 min

B1: C1: LAP fragment C1 (Gly412-Val648); histidine-tagged form SEQ ID NO: 8 (protein)
chain: GGIGDIYNGFIPSLTLGCGSYGKNSVSQNVSATNLLNVKRIADRRNNMQWFKLPPKIFFEKYSTQYLQKMEGVERVFIVTDPGMGSFKYVDVVIEHLKKRGNDVAYQVFADVEPDPSDVTVYKGAELMKDFKPDTIIALGGGSAMDAAKGMWLFYEHPEASFFGLKQKFLDIRKRTFKYPKLGGKAKFVAIPTTSGTGSEVTPFAVITDKENNIKYPLADYELTPDVAIVDAQYVTTV
modifications: Listeria Adhesion Protein C1 domain
- NF-κB activation by LAP domains (luciferase activity) (NF-κB): activity similar to the untreated control cells

B2: N1: LAP fragment N1 (Met1-Pro223); histidine-tagged form SEQ ID NO: 7 (protein)
chain: MAIKENAAQEVLEVQKVIDRLADNGQKALKAFESYNQEQVDNIVHAMALAGLDQHMPLAKLAVEETGRGLYEDKCIKNIFATEYIWNNIKNNKTVGVINEDVQTGVIEIAEPVGVVAGVTPVTNPTSTTLFKAIIAIKTRNPIIFAFHPSAQRCSSAAAKVVYDAAIAAGAPEHCIQWVEKPSLEATKQLMNHDKVALVLATGGAGMVKSAYSTGKPALGVGP
modifications: Listeria Adhesion Protein N1 domain
- NF-κB activation by LAP domains (luciferase activity) (NF-κB): activity similar to the untreated control cells

B3: InlA: purified recombinant InlA, Listeria surface protein Internalin A (protein)
chain: ATITQDTPINQIFTDTALAEKMKTVLGKTNVTDTVSQTDLDQVTTLQADRLGIKSIDGVEYLNNLTQINFSNNQLTDITPLKNLTKLVDILMNNNQIADITPLANLTNLTGLTLFNNQITDIDPLKNLTNLNRLELSSNTISDISALSGLTSLQQLSFGNQVTDLKPLANLTTLERLDISSNKVSDISVLAKLTNLESLIATNNQISDITPLGILTNLDELSLNGNQLKDIGTLASLTNLTDLDLANNQISNLAPLSGLTKLTELKLGANQISNISPLAGLTALTNLELNENQLEDISPISNLKNLTYLTLYFNNISDISPVSSLTKLQRLFFYNNKVSDVSSLANLTNINWLSAGHNQISDLTPLANLTRITQLGLNDQAWTNAPVNYKANVSIPNTVKNVTGALIAPATISDGGSYTEPDITWNLPSYTNEVSYTFSQPVTIGKGTTTFSGTVTQPLKAIFNVKFHVDGKETTKEVEAGNLLTEPAKPVKEGHTFVGWFDAQTGGTKWNFSTDKMPTNDINLYAQFSINSYTATFDNDGVTTSQTVDYQGLLQEPTAPTKEGYTFKGWYDAKTGGDKWDFATSKMPAKNITLYAQYSANSYTATFDVDGKSTTQAVDYQGLLKEPKAPTKAGYTFKGWYDEKTDGKKWDFATDKMPANDITLYAQFTKNPVAPPTTGGNTPPTTNNGGNTTPPSANIPGSDTSNTSTGNSASTTSTMNAYDPYNSKEASLPTT
- NF-κB activation (NF-κB): neutral

B4: C2: LAP fragment C2 (Pro649-Val866); histidine-tagged form SEQ ID NO: 9 (protein)
chain: PAHITADTGMDVLTHAIESYVSVMASDYTRGLSIRAIELVFENLRESVLTGDPDAREKMHNASALAGMAFANAFLGINHSLAHKIGPEFHIPHGRANAILMPHVIRYNALKPKKHALFPRYESFRADEDYARISRIIGFPAATTEEGVKSLVDEIIKLGKDVGIDMSLKGQNVAKKDLDAVVDTLADRAFMDQCTTANPKQPLVSELKEIYLEAYKGV
modifications: Listeria Adhesion Protein C2 domain
- NF-κB activation by LAP domains (luciferase activity) (NF-κB): activity similar to the untreated control cells

B5: N2: LAP fragment N2 (Gly224-Gly411); histidine-tagged form SEQ ID NO: 3 (protein)
chain: GNVPAYIDKTAKIKRSVNDIILSKSFDQGMICASEQAVIVDKEVAKEVKAEMEANKCYFVKGAEFKKLESYVINPEKGTLNPDVVGKSPAWIANQAGFKVPEDTKILVAEIKGVGDKYPLSHEKLSPVLAFIEAANQAEAFDRCEEMLVYGGLGHSAVIHSTDKEVQKAFGIRMKACRIIVNAPSAQG
modifications: Listeria Adhesion Protein N2 domain
- NF-κB activation by LAP domains (luciferase activity) (NF-κB): activated NF-κB nearly as effectively as the full-length LAP

B6: InlB: purified recombinant InlB protein of Listeria (protein, UniProt P0DQD2 31-630, looked up)
Internalin B: AKVQAETITVPTPIKQIFSDDAFAETIKDNLKKKSVTDAVTQNELNSIDQIIANNSDIKSVQGIQYLPNVTKLFLNGNKLTDIKPLANLKNLGWLFLDENKVKDLSSLKDLKKLKSLSLEHNGISDINGLVHLPQLESLYLGNNKITDITVLSRLTKLDTLSLEDNQISDIVPLAGLTKLQNLYLSKNHISDLRALAGLKNLDVLELFSQECLNKPINHQSNLVVPNTVKNTDGSLVTPEIISDDGDYEKPNVKWHLPEFTNEVSFIFYQPVTIGKAKARFHGRVTQPLKEVYTVSYDVDGTVIKTKVEAGTRITAPKPPTKQGYVFKGWYTEKNGGHEWNFNTDYMSGNDFTLYAVFKAETTEKAVNLTRYVKYIRGNAGIYKLPREDNSLKQGTLASHRCKALTVDREARNGGKLWYRLKNIGWTKAENLSLDRYDKMEYDKGVTAYARVRNASGNSVWTKPYNTAGAKHVNKLSVYQGKNMRILREAKTPITTWYQFSIGGKVIGWVDTRALNTFYKQSMEKPTRLTRYVSANKAGESYYKVPVADNPVKRGTLAKYKNQKLIVDCQATIEGQLWYRIRTSSTFIGWTKAANLRAQK
- NF-κB activation ability after polymyxin-B treatment (NF-κB): retained the NF-κB activation ability
- NF-κB activation after proteinase-K treatment (NF-κB): abolished
- NF-κB activation ability after heat treatment (NF-κB; 100° C., 10 min): abolished the NF-κB activation ability
- NF-κB activation (NF-κB): activated NF-κB
